Target: Flag-EGFR purified from 293T cells (UniProt P00533 25-1210)
Assay: co-IP

B1: His-CDC34 (enzyme)
chain: MARPLVPSSQKALLLELKGLQEEPVEGFRVTLVDEGDLYNWEVAIFGPPNTYYEGGYFKARLKFPIDYPYSPPAFRFLTKMWHPNIYETGDVCISILHPPVDDPQSGELPSERWNPTQNVRTILLSVISLLNEPNTFSPANVDASVMYRKWKESKGKDREYTDIIRKQVLGTKVDAERDGVKVPTTLAEYCVKTKAPAPDEGSDLFYDDYYEDGEVEEEADSCFGDDEDDSGTEES
  binding result: binds
